{
  "source": "patent US9670264B2",
  "about": "“Water soluble G-protein coupled receptor” (The Trustees of The University of Pennsylvania, priority 2013, dated 2017)",
  "key": {"[1]": {"assay": "Secondary structure by circular dichroism (CD)", "format": "physicochemical", "conditions": "CD 205-260 nm", "excerpt": "The CD spectra indicated predominantly helical structures with a helical secondary structure content of ˜48% (estimations based on the molar ellipticity over the range 205 to 260 nm). The comparison of the helical content with that of the native human MUR expressed in yeast system in the presence of high concentration of detergent (0.1% SDS) is presented in Table 1."}, "[2]": {"assay": "Thermostability monitored by CD (222 nm)", "format": "physicochemical", "conditions": "5 mM sodium phosphate, pH=7.0; for melting point: 0.01% SDS", "protocol": "The secondary structure of the water-soluble variant was determined through circular dichroism (CD). Circular dichroism (CD) spectra were recorded by using CD Spectrometer (Chirascan, AppliedPhotophysics Limited, Leatherhead, United Kingdom) with a scan speed of 1 nm/s and 1 mm path length. Corresponding blanks were used for calibration for each assay and subtracted from raw data. Two data sets were recorded and averaged to increase the signal-to-noise ratio. The CDNN CD spectra deconvolution software was utilized to determine the secondary structure content of the proteins. […] Absorbance was maintained lower than 1.0 to ensure sufficient light transmission. The temperature-dependence curve was plotted using GraphPad Prism® (version 5, GraphPad Software, Inc. La Jolla)."}, "[3]": {"assay": "Effects of denaturant (urea) and reducing agent (2-ME), by CD and intrinsic tryptophan fluorescence", "format": "physicochemical", "method": "CD and intrinsic tryptophan fluorescence were used to probe disulfide bond formation in the water-soluble variant. […] Even in 8 M urea, the protein retains some helical structure (Table 2). Upon addition of 2-ME, both the molar ellipticity and fluorescence further decreased, becoming more pronounced at the higher concentration of the reducing agent (200 mM). Thus the presence of an intramolecular disulfide bond is corroborated in the case of wsMUR-TM.\nOf particular interest are the tryptophan residues located in the partially buried transmembrane locations of the model structure (positions 194, 295, and 320). The fluorescence associated with these residues is expected to be sensitive to the local hydrophobic environment and overall folding of the protein.\nThe decrease of the tryptophan fluorescence under denaturing conditions and in the presence of 2-ME is consistent with the changes in CD spectra observed under similar conditions. The requirement of the reducing agent to fully denature and unfold the protein indicates the relevance of an intramolecular disulfide bond in stabilizing the receptor structure. […] However, the CD and ligand-binding studies are consistent with the adoption of the proper protein tertiary structure and by extension with the formation of the correct disulfide bond."}, "[4]": {"test_system": "human μ opioid receptor expressed in HEK293 cells", "assay": "Binding competition assay (TR-FRET/HTRF) between native human μ opioid receptor and water-soluble variants, with a fluorescent naltrexone-derived antagonist", "conditions": "FIG. 10, as for FIG. 7", "excerpt": "FIG. 7. […] Data is used to calculate HTRF ratios, and represent the mean±standard error of mean of quadruplicates. ΔF is used for the comparison of different runs of the same assay which reflects the signal to background of the assay. ΔF=[(Ratiosample−Ratiobackgroud)/Ratiobackgroud] (%).\nA recently developed methodology which uses a fluorescently labeled ligand and the native MUR was used to investigate the ligand-binding capabilities of the water-soluble receptors."}, "[5]": {"conditions": "pH 7.0 + 0.1% SDS, expressed in yeast system"}, "[6]": {"conditions": "None (no denaturant or reducing agent; normalisation reference)"}},
  "data": [
    {"molecule": "Native MUR: native human μ receptor expressed in yeast system, in 0.1% SDS [reference compound]", "values": [
      {"measurement": "Helix content", "setting": "[1]; [5]", "value": 40.6, "unit": "%"},
      {"measurement": "Others content", "setting": "[1]; [5]", "value": 40.5, "unit": "%"},
      {"measurement": "Turn content", "setting": "[1]; [5]", "value": 18.9, "unit": "%"}
    ]},
    {"molecule": "wsMUR-TM: computationally designed transmembrane-only water-soluble variant of the human μ opioid receptor (protein) SMITAIKIHEEYKKVCEEGKKGNKLVMEVIVRYTKMKTATNIYIFNLAKADALAESTLPFQSVNKLMGTWPFGTILCKKVISIDYYNMFTSIFTLCTMSVDRYIAVCHPVKALDFRTPRNAKEENEKNWKLSSEIGKPVEKKATTKYRQGSIDCTLTFSHPTWYWEDKLKDEVFKKAFEEPVKKIKECYGLMILRLKSVRMLSGSKEKDRNLRRITRMVLVVVEVFIKCWTEIHKYVKEGKLVTIPETTFQTVSWHECIAKGYKNSCENPKLYEELDENFKRCFREFC", "values": [
      {"measurement": "temperature at which almost fully unfolded (almost complete loss in molar ellipticity)", "setting": "[2]; 10 to 90° C.", "value": 90, "unit": "°C"},
      {"measurement": "temperature at which ellipticity starts to be lost significantly", "setting": "[2]; 10 to 90° C.", "value": "~62", "unit": "°C"},
      {"measurement": "melting point", "setting": "[2]; absence of cholesterol", "value": 82.9, "unit": "°C"},
      {"measurement": "melting point", "setting": "[2]; presence of cholesterol", "value": 89.3, "unit": "°C"},
      {"measurement": "Fluorescence Peak Intensity (%; 300-350 nm)", "setting": "[3]; [6]", "value": 100.0, "unit": "%"},
      {"measurement": "Molar Ellipticity (%; 222 nm)", "setting": "[3]; [6]", "value": 100.0, "unit": "%"},
      {"measurement": "Fluorescence Peak Intensity (%; 300-350 nm)", "setting": "[3]; Urea (8M)", "value": 28.4, "unit": "%"},
      {"measurement": "Molar Ellipticity (%; 222 nm)", "setting": "[3]; Urea (8M)", "value": 40.0, "unit": "%"},
      {"measurement": "Fluorescence Peak Intensity (%; 300-350 nm)", "setting": "[3]; Urea (8M) 2-ME (25 mM)", "value": 23.9, "unit": "%"},
      {"measurement": "Molar Ellipticity (%; 222 nm)", "setting": "[3]; Urea (8M) 2-ME (25 mM)", "value": 25.1, "unit": "%"},
      {"measurement": "Fluorescence Peak Intensity (%; 300-350 nm)", "setting": "[3]; Urea (8M) 2-ME (200 mM)", "value": 4.5, "unit": "%"},
      {"measurement": "Molar Ellipticity (%; 222 nm)", "setting": "[3]; Urea (8M) 2-ME (200 mM)", "value": 0.0, "unit": "%"},
      {"measurement": "Helix content", "setting": "[1]; pH 7.0 in NaHPO4", "value": 48.0, "unit": "%"},
      {"measurement": "Others content", "setting": "[1]; pH 7.0 in NaHPO4", "value": 37.4, "unit": "%"},
      {"measurement": "Turn content", "setting": "[1]; pH 7.0 in NaHPO4", "value": 14.6, "unit": "%"}
    ]},
    {"molecule": "wsMUR-TM+7mut: second wsMUR recombinant protein (protein) SMITAIKILEEYKKVCEEGRKGNKLVMEVIVRYTKMKTATNIYIFNLAKADALAESTLPFQSVNKLMGTWPFGTILCKKVISIDYYNMFTSIFTLCTMSVDRYIAVCHPVKALDFRTPRNAKEHNEKNWKLSSEIGKPVEKRATTKYRQGSIDCTLTFSHPTWYWEDKLKDTVFKKAFEEPVKVIKECYGLMILRLKSVRMLSGSKEKDRNLRRITRMVLVVVEVFIKCWTEIHKYVKEGKL", "values": [
      {"measurement": "binding activity (interaction with naltrexone)", "setting": "[4]", "value": "binding activity was also observed"}
    ]}
  ]
}
